± gives the uncertainty stated by the source.
Assay: protein stability index of a GFP-peptide fusion (yeast GPS) (PSI 1-4); higher = more stable; sorted into four equal gates, so the index is relative within each strain
Procedure, shortened: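 Mid-log yeast cultures in leucine-free medium, carrying a pooled plasmid library, were sorted into four equal gates by their GFP/Cherry fluorescence ratio. Each plasmid expressed Cherry along with GFP fused upstream of a tiled 17-residue yeast protein peptide. Plasmids recovered from each gate were PCR-amplified and Illumina-sequenced, with reads assigned to strains by barcodes. The protein stability index was obtained by summing each gate's read frequency weighted by its gate number.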

Sequence | protein stability index (doa10∆) | protein stability index (pdr5∆) | protein stability index (san1∆) | protein stability index (ubr1∆)
LIKAKNFLVFQGDVEQI [SMC1] | 2.63 ± 0.19 | 3.15 ± 0.12 | 2.41 ± 0.17 | 2.76 ± 0.23
RLAKKPSMKKIKIEPSA [SIR3] | 2.48 ± 0.094 | 3.06 ± 0.099 | 2.76 ± 0.071 | 2.88 ± 0.065
SNPQHIIQPFLDNSKMD [RGR1] | 2.91 ± 0.062 | 2.98 ± 0.075 | 2.53 ± 0.077 | 2.86 ± 0.034
CESCSTVLCTPTGGKAK [RPS27B] | 1.94 ± 0.068 | 2.5 ± 0.056 | 2.07 ± 0.081 | 2.51 ± 0.053
SKKRQAEKLVPLPICHA [YML031W/NDC1] | 2.33 ± 0.12 | 2.5 ± 0.049 | 2.39 ± 0.087 | 2.39 ± 0.093
APVEVQEDFEVVEEFTP [RPS5] | 3.31 ± 0.076 | 3.21 ± 0.08 | 3.02 ± 0.049 | 2.94 ± 0.062
QNFENDFSLRYISNLLY [REC8] | 2.19 ± 0.074 | 2.29 ± 0.076 | 2.02 ± 0.11 | 2.06 ± 0.043
SFGNREEFINKLVKSMN [RPL7A] | 2.52 ± 0.11 | 2.6 ± 0.11 | 2.29 ± 0.18 | 2.76 ± 0.071
YYEQFRPDLIKEDHPLE [SIR3] | 2.68 ± 0.058 | 2.73 ± 0.066 | 3.02 ± 0.043 | 2.67 ± 0.046
ANDHDESIDVDMDAESN [SMC3] | – | 2.37 ± 0.28 | – | 1.81 ± 0.25
FTITVARKYLQTRWGLP [FAS2] | 1.44 ± 0.092 | 1.29 ± 0.1 | 1.36 ± 0.21 | 1.96 ± 0.29
GKMVRAQDVALAKKWFL [PRP8] | 2.34 ± 0.12 | 2.51 ± 0.14 | 2.57 ± 0.23 | 3.05 ± 0.24
AEHKYMPYTINELLEMV [BRR2] | 2.92 ± 0.083 | 3.04 ± 0.092 | 2.53 ± 0.068 | 2.65 ± 0.043
SSTYYNLDYLFELIELV [NUT1] | – | 2.62 ± 0.17 | 2.78 ± 0.15 | –
LNGGLQFVPELKEFTAK [FAS2] | 2.75 ± 0.11 | 2.72 ± 0.11 | 2.3 ± 0.092 | 1.83 ± 0.064
SVKSARTSTRGRGRGRG [SNF2] | 3.38 ± 0.065 | 3.35 ± 0.064 | 3.19 ± 0.046 | 3.32 ± 0.041
APQLFPYGSFHQQQLQQ [DSN1] | 2.77 ± 0.076 | 2.84 ± 0.09 | 2.77 ± 0.087 | 3.15 ± 0.069
THPKDTFYITREKYNMK [ARP9] | 2.98 ± 0.12 | 3.09 ± 0.083 | 3.07 ± 0.06 | 3.31 ± 0.064
DSEKRNKYAAMLTSENA [RRP45] | 2.97 ± 0.068 | 3.02 ± 0.063 | 3.14 ± 0.067 | 2.92 ± 0.04
KEMTLQKNMNDLLRSQL [YIL149C/MLP2] | 3.08 ± 0.049 | 2.43 ± 0.052 | 2.19 ± 0.082 | 2.64 ± 0.046
KLALGIALEGYRLDIIE [RPN2] | 2.51 ± 0.15 | 1.77 ± 0.11 | – | 2.19 ± 0.083
TAAETFKLFNKYRPETA [RPL8A] | 2.8 ± 0.065 | 3 ± 0.059 | 2.64 ± 0.072 | 2.8 ± 0.051
ERLQLLEDVVGAKSFEV [SMC3] | 3.14 ± 0.21 | – | – | –
LANYLTSALSELSGLIS [QCR2] | 1.48 ± 0.047 | 1.88 ± 0.044 | 1.84 ± 0.064 | 1.59 ± 0.033
SLSEGCDILVATPGRLI [PRP28] | 3.47 ± 0.12 | 3.23 ± 0.084 | 3.25 ± 0.047 | 3.28 ± 0.05
IEHPMTSAIEVLVGSCA [RPN1] | 1.94 ± 0.043 | 1.81 ± 0.042 | 2.14 ± 0.057 | 1.82 ± 0.046

Sequence | protein stability index (doa10∆) | protein stability index (pdr5∆) | protein stability index (san1∆) | protein stability index (ubr1∆)
LPPPEDVAFLKTAYSIY [RPN1] | 2.4 ± 0.06 | 2.36 ± 0.052 | 2.46 ± 0.069 | 2.47 ± 0.053
NNETEQLKAEEKKILNQ [SMC1] | 3.11 ± 0.12 | 3.15 ± 0.17 | 3.13 ± 0.17 | 3.01 ± 0.11
EEISRLQRDLIQTKEQV [YIL149C/MLP2] | 2.77 ± 0.095 | 2.98 ± 0.15 | 3.13 ± 0.14 | 3.11 ± 0.082
IRKQPDDIINNDEPSHK [SIR2] | 2.91 ± 0.065 | 2.95 ± 0.039 | 2.94 ± 0.04 | 2.83 ± 0.039
ADLSSSEEEEDEEENGS [SSN2] | 3.36 ± 0.087 | 3.51 ± 0.12 | 3.59 ± 0.084 | 3.29 ± 0.064
ALLNFVLPKIFNSVKSF [SNF2] | 2.44 ± 0.094 | 1.71 ± 0.066 | 1.98 ± 0.11 | 1.33 ± 0.043
KTLCARAVANRTDATFI [RPT1] | 1.39 ± 0.12 | 1.37 ± 0.12 | 1.26 ± 0.15 | 1.37 ± 0.18
DADGDIDMGEDKENVPV [DPB4] | 3.12 ± 0.17 | 3.29 ± 0.13 | 3.01 ± 0.15 | 3.66 ± 0.13
SSVKTCFKPMSLTSKRL [RIP1] | 3.02 ± 0.063 | 3.04 ± 0.063 | 2.85 ± 0.047 | 2.62 ± 0.033
IITNINAIFLSSEQDYS [YCG1] | 2.54 ± 0.078 | 2.58 ± 0.13 | 1.58 ± 0.22 | 2.89 ± 0.098
GSKENYQELGSLQSSSQ [MED2] | 3.16 ± 0.15 | 3.45 ± 0.098 | 3.27 ± 0.071 | 3.12 ± 0.093
NVAHRIKEDIKKQPSIL [SNF2] | 2.9 ± 0.15 | 3.21 ± 0.14 | 3.05 ± 0.097 | 3.19 ± 0.12
MPFWKFFMKNFPFVLKV [SRB8] | 2.8 ± 0.23 | 1.99 ± 0.11 | 2.03 ± 0.12 | 2.04 ± 0.1
RLWLKKVMEEEEQDCKC [POP8] | 2.5 ± 0.095 | 2.9 ± 0.084 | 3.07 ± 0.079 | 2.8 ± 0.083
RRKTTKQNSSSDINQND [YDL088C/ASM4] | 3.16 ± 0.096 | 3.15 ± 0.098 | 2.96 ± 0.083 | 2.95 ± 0.059
SDSNANAAVAGVANTDT [SWI3] | 3.28 ± 0.063 | 3.33 ± 0.07 | 3.22 ± 0.044 | 2.91 ± 0.061
RDRTSGQKLLAIKYGYE [SRB4] | 2.9 ± 0.15 | 3.17 ± 0.11 | 3.11 ± 0.084 | 3.23 ± 0.096
KAANFIQNQSPQFNSPY [SWI1] | 1.99 ± 0.061 | 1.71 ± 0.046 | 2.37 ± 0.065 | 2.42 ± 0.058
IPGEEVEETEVPTVPPS [MED4] | 2.66 ± 0.11 | 2.42 ± 0.11 | 2.44 ± 0.13 | 2.62 ± 0.059
DWEKYKAPLEDDDKKPD [RPT1] | 3.16 ± 0.12 | 3.56 ± 0.19 | 2.96 ± 0.21 | 3.31 ± 0.16
LPSSNGSSRIIASDGSE [RRP42] | 3.08 ± 0.091 | 2.86 ± 0.11 | 3.17 ± 0.11 | 2.74 ± 0.085
HDEKSDSLNEWIKFDQE [RPN7] | 3.19 ± 0.13 | 3.29 ± 0.22 | 3.27 ± 0.076 | 3.21 ± 0.072
SVKESTGMSSMSPFLRK [SRB4] | 3.42 ± 0.14 | 2.6 ± 0.23 | 2.1 ± 0.25 | 3.15 ± 0.079
PTLQVGDLVYARVCTAE [RRP40] | 1.5 ± 0.075 | 1.85 ± 0.12 | 1.42 ± 0.12 | 1.88 ± 0.082
AKRNLDANPSSQIIARN [SMC2] | 2.49 ± 0.083 | 2.79 ± 0.076 | 3.09 ± 0.095 | 2.92 ± 0.065
VTEDGTVVTVVSTAKFS [RPL22A] | 2.52 ± 0.13 | 2.81 ± 0.14 | 2.2 ± 0.12 | 2.59 ± 0.061
